Literature values in paper PMC8315802.
Where two headings read alike, the source gives them in different places. Each block holds one substance with its values, some of them ahead of it.

Legend:
[1] = biological target: actin filament (Oryctolagus cuniculus) (UniProt P68135)
[2] = biological target: actin filament (Oryctolagus cuniculus) (UniProt P68135); remark: listed apart in the source
[3] = biological target: actin filament (Oryctolagus cuniculus) (UniProt P68135); remark: listed apart in the source

Kd [1]: 900 nM
Substance: Rng2 1-189 (from UniProt O14188)

Kd [2]: 1500 nM
Substance: utrophin CHD (from UniProt P46939)

Kd [3]: 4700 nM
Substance: α-actinin CHD (from UniProt P05094)
